In the supplement of paper PMC10567573:
± gives the standard deviation.

Test: protein stability index of a GFP-peptide fusion (GPS, HEK-293T) (PSI 1-6); higher = more stable
[1] = treatment: DMSO, c terminus: a fixed tail appended
[2] = treatment: MLN4924 1 uM, 8 h, c terminus: a fixed tail appended
[3] = treatment: DMSO, c terminus: native
[4] = treatment: MLN4924 1 uM, 8 h, c terminus: native
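Note: 24-mer peptide tiles fused after GFP, lentivirally expressed, FACS-sorted into six equal bins by GFP/DsRed ratio, decoded by Illumina sequencing, PSI is the read-weighted mean bin number.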

Sequence | protein stability index [1] | protein stability index [2] | protein stability index [3] | protein stability index [4]
ENARSGAEAEPEDQDEGEWGLDQE [ZBED1] | 5.62 ± 0.15 | 5.56 ± 0.28 |  | 
LASLQDGAAESPYGHPAGIDYKTT [RAB40B] | 4.4 ± 0.31 | 4.39 ± 0.15 |  | 
RRFNFDTDRPLLSTLEESVVRICC [SMG5] | 2.17 ± 0.25 | 2.19 ± 0.22 |  | 
ATVPSNMMSVNGQAKTHTDSSEKE [ACBD3] | 5.35 ± 0.23 | 5.45 ± 0.19 |  | 
PASGSTFRGRRDVSGSWERDQQVE [RETREG3] | 4.67 ± 0.22 | 4.86 ± 0.28 |  | 
LPSNLLKKFRSSTSSSLGDKSEYL [KCNA4] | 3.11 ± 0.084 | 3.23 ± 0.37 |  | 
STALERPSFLSQTGHGVSRGPSPV [FCHO1] | 4.1 ± 0.34 | 4.28 ± 0.42 |  | 
PESLNSPVSGKAVFMEFGPPNQQM [DLX1] | 3.79 ± 0.33 | 3.92 ± 0.26 |  | 
IIVTIMASQSLGSPMYFFLASLSF [OR4A15] | 3.29 ± 0.57 | 3.13 ± 0.2 |  | 
DLKDDGNMMKVLRGHQNWVYSCAF [WSB1] | 2.3 ± 0.29 | 1.87 ± 0.22 |  | 
ARVKPPEGYDVVAVYPNAKVELV [PDLIM4] |  |  | 3.52 ± 0.35 | 3.65 ± 0.22
AKAELPKYKSFNRTAMPYGGYEKA [MYOZ1] | 3.22 ± 0.23 | 3.41 ± 0.24 |  | 
EIFAIDLRCGNQGKGWKATRLFHD [DCAF4] | 2.24 ± 0.44 | 2.12 ± 0.22 |  | 
QTLQALNFCHIHNCIHRDIKPENI [CDKL4] | 2.47 ± 0.28 | 2.34 ± 0.26 |  | 
FENMSNDDAVRVLREIVHKPGPIT [DVL3] | 3.65 ± 0.15 | 3.7 ± 0.15 |  | 
HGWLRPEMRTKEQILELLVLEQFL [ZNF263] | 2.46 ± 0.47 | 2.61 ± 0.43 |  | 
PAKAANRTPPKSPGDPSKDRAAKR [TPPP] | 5.22 ± 0.38 | 5.21 ± 0.32 |  | 
FNYRYFEVEEADGNKQWWFGGGCD [CPOX] | 2.48 ± 0.23 | 2.58 ± 0.28 |  | 
MTVEKEAPDAHFTVDKQNISLWPR [CD207] | 3.58 ± 0.36 | 3.86 ± 0.5 |  | 
EEERAQDRIATTDDTTAMASASSS [MAGEA10] | 5.66 ± 0.17 | 5.42 ± 0.1 |  | 
ALTGPVVDIVTGHARLSDIWAKTP [DHCR7] | 2.63 ± 0.21 | 2.71 ± 0.17 |  | 
VEEVDMAEEFEQPTLSCEKYLTYD [ELOA2] | 5.09 ± 0.32 | 5.19 ± 0.39 |  | 
PMPLAPTRSHLWEAAQVVPDGLGL [TRIB3] | 3.48 ± 0.32 | 3.34 ± 0.23 |  | 

Sequence | protein stability index [1] | protein stability index [2] | protein stability index [3] | protein stability index [4]
DLVLDEEGARAAGLGELGAALLQL [ESRRA] | 3.94 ± 0.19 | 4.05 ± 0.17 |  | 
NNLEPILEGYISNLRKQLETLSGD [KRT71] | 3.07 ± 0.26 | 3.18 ± 0.35 |  | 
LSNLVQHILKKYYGNGMRKSPEMP [RTP4] | 2.43 ± 0.35 | 2.28 ± 0.11 |  | 
QLQSMPSRELASMNLDIVDLLKKA [RHOBTB3] | 3.46 ± 0.35 | 3.79 ± 0.47 |  | 
GEQVGRGPGFHAGTSALWRHLRSA [ZBED3] | 3.35 ± 0.13 | 3.27 ± 0.27 |  | 
MAAPEERDLTQEQTEKLLQFQDLT [FAF2] | 5.13 ± 0.29 | 5.16 ± 0.2 |  | 
KKAFLNQAQIELRLLELMNQHDTE [DYRK1B] | 3.05 ± 0.3 | 3.35 ± 0.14 |  | 
FQVNKLMKKIKKLENDTISKQLTL [CCDC6] | 2.26 ± 0.12 | 2.38 ± 0.33 |  | 
LMVHGNERFIQYLASRNTLFNLSN [SNAP91] | 2.67 ± 0.54 | 2.3 ± 0.7 |  | 
KMVSAEISENRKRQWPTKSQTDRG [SDE2] | 4.52 ± 0.069 | 4.41 ± 0.2 |  | 
VEVMDETNCQKVLNMWCCCFFKRR [CSNK1G3] | 3.21 ± 0.38 | 3.15 ± 0.39 |  | 
QLQAARNEYLLNLVATNAHLDHYY [FCHSD1] | 2.58 ± 0.44 | 2.55 ± 0.73 |  | 
VKVPGIVRLRTLLCKVLGVLFSVA [CLCN6] | 2.21 ± 0.32 | 2.19 ± 0.29 |  | 
VKNSNRYDVEMTDELVGLPFSSHT [FBXO34] | 3.8 ± 0.25 | 4 ± 0.12 |  | 
NLHRVAAHELGHSLGLSHSTDIGA [MMP1] | 3.48 ± 0.33 | 3.57 ± 0.33 |  | 
VIVQIKQPRKKYVQRKSDFDQTVF [NETO1] | 2.09 ± 0.3 | 2.09 ± 0.076 |  | 
CSNLVKTRRRAVGWWKRLFTLKEE [ARL6IP1] | 2.42 ± 0.28 | 2.6 ± 0.21 |  | 
MVGPLAQDPQSPMAGLRWLDSWDF [POMT2] | 2.66 ± 0.42 | 2.75 ± 0.41 |  | 
LQGLIPGARYEVTVVSVRGFEESE [TNXB] | 2.19 ± 0.34 | 2.44 ± 0.78 |  | 
AEHMKRQRHPRLRPQSAQSSFPPS [AUP1] | 4.13 ± 0.12 | 4.43 ± 0.25 |  | 
CSIGFAVRYLNAYTGIVLLRCRKE [POP5] | 3.13 ± 0.43 | 2.99 ± 0.57 |  | 
MLLDIKTRLEQEIATYRSLLEGQD [KRT15] | 2.9 ± 0.34 | 3.07 ± 0.34 |  | 
TDVRGLEEFLSAMQSARGPTPSSP [PLEKHN1] | 4.12 ± 0.16 | 4.14 ± 0.38 |  | 

Sequence | protein stability index [1] | protein stability index [2] | protein stability index [3] | protein stability index [4]
DTQVNPVGSVSVDCGPSRADRCSP [FBXO34] | 5.09 ± 0.32 | 5.15 ± 0.28 |  | 
PAISITENVLHFKAQGHGAKGDNV [HACD3] | 4.54 ± 0.095 | 4.57 ± 0.37 |  | 
ACGGGHLLPYFYIIYMAILLTHRC [DHCR7] | 2.8 ± 0.18 | 3.07 ± 0.19 |  | 
PTKDRLEGLLAFKEKRPPRYKGE [AUH] |  |  | 2.11 ± 0.31 | 4.4 ± 0.1
HDEDIKTTNVKSASRQKTSLGIEL [ZNF396] | 4.5 ± 0.27 | 4.58 ± 0.14 |  | 
EEGFMTAELAGVIKRLWKDSGVQA [GNAI1] | 3.19 ± 0.49 | 3.53 ± 0.58 |  | 
SHAIHVEEQSDQSFSSLEPDNEQL [IQUB] | 5.38 ± 0.27 | 5.63 ± 0.17 |  | 
ESRIVEQENAIQTMELRNYFSLYC [SNX8] | 2.62 ± 0.3 | 2.61 ± 0.19 |  | 
IRHQRIHTGEKPYTCHECGDSFSH [ZNF263] | 2.62 ± 0.4 | 2.7 ± 0.36 |  | 
NCKRERDARVKRKLRGPEPAATEA [TBX6] | 4.84 ± 0.42 | 4.66 ± 0.22 |  | 
YIVAGSARQHALYIWEKSIGNLVK [RBBP5] | 2.22 ± 0.25 | 2.14 ± 0.47 |  | 
EPGGYDSSSTLMSSELETTSFFDS [DVL3] | 4.96 ± 0.31 | 4.96 ± 0.21 |  | 
EALRALQEGLWLDRGTRVVFIDFS [PKD2L1] | 2.3 ± 0.72 | 2.34 ± 0.35 |  | 
HDCAESGSLDIMKMLLMYCAKMEK [FEM1C] | 2.16 ± 0.3 | 2.13 ± 0.22 |  | 
WGDLLGEDSLAALSSVPSEAQISD [SNAP91] | 4.76 ± 0.3 | 4.71 ± 0.22 |  | 
ENFQEGKDMSESQDEVPDEVENQF [TAF7L] | 5.58 ± 0.2 | 5.56 ± 0.24 |  | 
PWARGCGMFTFLSSVTAAVSGLLV [SLC2A12] | 2.54 ± 0.3 | 2.57 ± 0.21 |  | 
KEIAKNLIQPINHTTLQCLAARVI [FEM1C] | 2.33 ± 0.5 | 2.33 ± 0.47 |  | 
DSAVENLLLLSKAKLVPSEREASP [IKZF1] | 4.15 ± 0.23 | 4.59 ± 0.14 |  | 
FIIGELHPDDRPKLNKPPETLITT [CYB5A] | 2.73 ± 0.35 | 2.91 ± 0.4 |  | 
FYPVMLILFLVIGGMLNFMMHDQR [SOAT2] | 3.34 ± 0.36 | 2.95 ± 0.11 |  | 
AAWGARVFSFGKHYWELDVDNSCD [TRIM43] | 2.25 ± 0.44 | 2.28 ± 0.3 |  | 
ILTEETEVKGTLEGDVCGVEPPGP [PBXIP1] | 5.14 ± 0.39 | 5.42 ± 0.24 |  | 

Sequence | protein stability index [1] | protein stability index [2] | protein stability index [3] | protein stability index [4]
VFMEFGPPNQQMSPSPMSHGHYSM [DLX1] | 2.21 ± 0.1 | 2.24 ± 0.23 |  | 
CGFTVAQIITSLVFHLPFYSSNQL [OR10K2] | 3.15 ± 0.51 | 2.95 ± 0.41 |  | 
EGVKRYEQEHAAIQDKLFQVAKRE [CHCHD6] | 4.84 ± 0.32 | 4.78 ± 0.24 |  | 
PPHVLISRPSAPFTEASMMMSLTK [ESR2] | 3.48 ± 0.084 | 3.44 ± 0.18 |  | 
ELACPAERSGHVAVSDGRHMFVWG [KLHDC2] | 2.84 ± 0.15 | 2.92 ± 0.2 |  | 
NMSKEDAMVEFVKLLNRCCHLFST [ACBD3] | 2.24 ± 0.16 | 2.29 ± 0.39 |  | 
GPSHPDTSYYIRYRGAVYADSGNF [FEM1C] | 2.11 ± 0.45 | 2.54 ± 0.35 |  | 
GGANDRWVRSVSFSHDGLHVASLA [WSB1] | 3.08 ± 0.3 | 3.16 ± 0.42 |  | 
VTVPSMLSRLLSRKRAVPCGACLT [OR3A1] | 2.39 ± 0.38 | 2.25 ± 0.29 |  | 
EAYTKICDPGLTAFEPEALGNLVE [CAMK2D] | 3.91 ± 0.25 | 3.62 ± 0.27 |  | 
TNNGAGFGLSILWVLLFTPCSFVC [SCAMP3] | 3.04 ± 0.37 | 3.27 ± 0.36 |  | 
KCLYYLYATLDLNAVKYVSNIKFC [PDS5B] | 3.06 ± 0.41 | 2.75 ± 0.78 |  | 
YILLVTSDVLTISGTIMKIGIEAK [MCOLN1] | 3.09 ± 0.5 | 3.17 ± 0.39 |  | 
MPGFPDNIRPSSSGGYWVGMSTIR [APMAP] | 2.87 ± 0.38 | 2.9 ± 0.42 |  | 
EEMAKSSRASAARVGQLQEALNER [LRRC45] | 4.97 ± 0.46 | 5.12 ± 0.28 |  | 
NGEARQLPEDDGLEQDLQQVMVSG [ARFIP2] | 5.36 ± 0.22 | 5.49 ± 0.2 |  | 
YHNAGTQTVPKRIPERLSIFCRDT [IQUB] | 2.51 ± 0.28 | 3.04 ± 0.8 |  | 
SWAWRGPGVLKVLWLTASQPCSIV [LPCAT4] | 2.74 ± 1.1 | 2.52 ± 0.84 |  | 
PEKKSDQPMCEEHEEERINIYCLN [TRIM55] | 4.79 ± 0.12 | 4.77 ± 0.35 |  | 
LRELCRLWLRPETHTKEQILELVV [ZNF24] | 2.44 ± 0.21 | 2.11 ± 0.34 |  | 
